Test results as given in the supplement of paper PMC10724198.
± gives the standard deviation of the averaged measurements.

Assays:
Saccharomyces cerevisiae [1] = assay: protein stability index of tFT-peptide fusion (C-terminal peptide) (PSI (0-1 scale)); higher = more stable (slower turnover); conditions: genetic background: wild type; temperature: 30 C
Saccharomyces cerevisiae [2] = assay: as above
Method: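 MPS profiling in S. cerevisiae of the tFT-X12 degron library: putative degron peptides plus stable controls, 12 aa, fused to the C-terminus of a sfGFP-mCherry timer. Cells are FACS-sorted into 8 mCherry/sfGFP bins and deep-sequenced. PSI runs from 0 (unstable) to 1 (stable). Backgrounds are wild type, das1Δ and doa10Δ at 30 °C, and wild type, das1Δ, cdc34-1 and cdc53-1 at 37 °C; 2-3 technical replicates each.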

[3] = genetic background: cdc34-1, temperature: 37 C
[4] = genetic background: cdc53-1, temperature: 37 C
[5] = genetic background: das1 deletion, temperature: 30 C
[6] = genetic background: das1 deletion, temperature: 37 C
[7] = genetic background: doa10 deletion, temperature: 30 C
[8] = genetic background: wild type, temperature: 30 C
[9] = genetic background: wild type, temperature: 37 C
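Note: PSI is a weighted mean of sequencing reads over stability bins, variants kept only with over 10 reads, mCherry proximal and sfGFP distal, peptide attached via GGGS linker.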

Row | Sequence | protein stability index (Saccharomyces cerevisiae [1]) | protein stability index (Saccharomyces cerevisiae [2]; [3]) | protein stability index (Saccharomyces cerevisiae [2]; [4]) | protein stability index (Saccharomyces cerevisiae [2]; [5]) | protein stability index (Saccharomyces cerevisiae [2]; [6]) | protein stability index (Saccharomyces cerevisiae [2]; [7]) | protein stability index (Saccharomyces cerevisiae [2]; [8]) | protein stability index (Saccharomyces cerevisiae [2]; [9])
1 | ETCFSFVCSVQC | 0.398 ± 0.0044 | 0.328 ± 0.013 | 0.325 ± 0.025 | 0.284 ± 0.036 | 0.4019 ± 0.0023 | 0.221 ± 0.012 | 0.281 ± 0.02 | 0.385 ± 0.0093
2 | EVFLARKRSMVV | 0.341 ± 0.03 | 0.593 ± 0.043 | 0.677 ± 0.058 | 0.537 ± 0.036 | 0.67627 ± 0.00012 | 0.175 ± 0.019 | 0.214 ± 0.015 | 0.418 ± 0.0088
3 | EWVWVVFSCVSW | 0.3472 ± 0.0015 | 0.303 ± 0.027 | 0.429 ± 0.0099 | 0.307 ± 0.029 | 0.435 ± 0.012 | 0.2932 ± 0.0027 | 0.32 ± 0.012 | 0.432 ± 0.024
4 | FAIRMHCLIFRC | 0.19 ± 0.0057 | 0.123 ± 0.05 | 0.15 ± 0.024 | 0.26 ± 0.048 | 0.343 ± 0.036 | 0.2 ± 0.0056 | 0.124 ± 0.02 | 0.185 ± 0.0043
5 | FCSVFAHFLLCH | 0.264 ± 0.0032 | 0.382 ± 0.011 | 0.443 ± 0.0052 | 0.4 ± 0.013 | 0.49 ± 0.0094 | 0.193 ± 0.005 | 0.207 ± 0.013 | 0.271 ± 0.0043
6 | FFCCVLFSIVVY | 0.171 ± 0.0089 | 0.0536 ± 0.029 | 0.0863 ± 0.019 | 0.129 ± 0.026 | 0.167 ± 0.002 | 0.103 ± 0.0065 | 0.104 ± 0.028 | 0.114 ± 0.024
7 | FFFSFSFPFLSF | 0.518 ± 0.034 | 0.462 ± 0.014 | 0.481 ± 0.027 | 0.464 ± 0.023 | 0.559 ± 0.0068 | 0.55 ± 0.022 | 0.477 ± 0.018 | 0.555 ± 0.031
8 | FFFSLFFVLFFA | 0.22 ± 0.0051 | 0.284 ± 0.035 | 0.23 ± 0.011 | 0.21 ± 0.035 | 0.348 ± 0.061 | 0.323 ± 0.028 | 0.2 ± 0.022 | 0.314 ± 0.013
9 | FFGRWWWSFLLA | 0.364 ± 0.026 | 0.582 ± 0.038 | 0.634 ± 0.0095 | 0.538 ± 0.019 | 0.663 ± 0.012 | 0.262 ± 0.0098 | 0.261 ± 0.033 | 0.443 ± 0.026
10 | FFLDVMFLLFFF | 0.445 ± 0.037 | 0.501 ± 0.062 | – | 0.399 ± 0.036 | 0.524 ± 0.008 | 0.44 ± 0.022 | 0.399 ± 0.021 | 0.513 ± 0.0088
11 | FFLLFCASFLRC | 0.381 ± 0.014 | 0.281 ± 0.021 | 0.202 ± 0.01 | 0.317 ± 0.011 | 0.433 ± 0.053 | 0.3661 ± 0.0025 | 0.294 ± 0.029 | 0.354 ± 0.0037
12 | FFLSFICVMLCG | 0.237 ± 0.027 | 0.192 ± 0.024 | 0.247 ± 0.024 | 0.173 ± 0.013 | 0.303 ± 0.0073 | 0.165 ± 0.0019 | 0.158 ± 0.011 | 0.2575 ± 0.0025
13 | FFSGSVFMAVSL | 0.408 ± 0.008 | 0.387 ± 0.011 | 0.44 ± 0.0097 | 0.444 ± 0.04 | 0.399 ± 0.017 | 0.467 ± 0.036 | 0.433 ± 0.02 | 0.37901 ± 0.00016
14 | FFVWGVFLGVSW | 0.358 ± 0.012 | 0.229 ± 0.033 | 0.264 ± 0.016 | 0.265 ± 0.043 | 0.406 ± 0.005 | 0.297 ± 0.015 | 0.25 ± 0.026 | 0.362 ± 0.0063
15 | FGEDFCHLLWCC | 0.442 ± 0.014 | 0.623 ± 0.033 | 0.713 ± 0.021 | 0.583 ± 0.026 | 0.725 ± 0.011 | 0.347 ± 0.0051 | 0.374 ± 0.027 | 0.542 ± 0.018
16 | FGFSFLHLFIFF | 0.399 ± 0.035 | 0.429 ± 0.051 | 0.395 ± 0.028 | 0.375 ± 0.033 | 0.519 ± 0.03 | 0.443 ± 0.011 | 0.313 ± 0.038 | 0.457 ± 0.013
17 | FGGICFAVLLCR | 0.343 ± 0.013 | 0.246 ± 0.016 | 0.262 ± 0.0027 | 0.263 ± 0.035 | 0.3926 ± 0.0036 | 0.258 ± 0.0034 | 0.244 ± 0.0097 | 0.357 ± 0.021
18 | FHICTQLIFITC | 0.192 ± 0.025 | 0.06103 ± 0.00047 | 0.0651 ± 0.015 | 0.146 ± 0.029 | 0.198 ± 0.0078 | 0.114 ± 0.0037 | 0.127 ± 0.0084 | 0.145 ± 0.0024
19 | FILCGFSVVLIG | 0.255 ± 0.12 | 0.153 ± 0.033 | 0.245 ± 0.0032 | 0.191 ± 0.036 | 0.395 ± 0.016 | 0.162 ± 0.019 | 0.184 ± 0.048 | 0.372 ± 0.014
20 | FILLIFLSLLSP | 0.3211 ± 0.0026 | 0.352 ± 0.0047 | 0.416 ± 0.024 | 0.294 ± 0.029 | 0.454 ± 0.01 | 0.26 ± 0.0071 | 0.281 ± 0.043 | 0.427 ± 0.016

Row | Sequence | protein stability index (Saccharomyces cerevisiae [1]) | protein stability index (Saccharomyces cerevisiae [2]; [3]) | protein stability index (Saccharomyces cerevisiae [2]; [4]) | protein stability index (Saccharomyces cerevisiae [2]; [5]) | protein stability index (Saccharomyces cerevisiae [2]; [6]) | protein stability index (Saccharomyces cerevisiae [2]; [7]) | protein stability index (Saccharomyces cerevisiae [2]; [8]) | protein stability index (Saccharomyces cerevisiae [2]; [9])
21 | FIPPRTYCLMIG | 0.323 ± 0.024 | 0.57632 ± 0.00037 | 0.682 ± 0.0096 | 0.58 ± 0.0063 | 0.693 ± 0.011 | 0.219 ± 0.0046 | 0.233 ± 0.026 | 0.297 ± 0.015
22 | FIRLFLVSFFIS | 0.31 ± 0.089 | 0.405 ± 0.048 | 0.451 ± 0.027 | 0.375 ± 0.019 | 0.567 ± 0.032 | 0.174 ± 0.013 | 0.189 ± 0.022 | 0.298 ± 0.0093
23 | FLACYSSFLFVS | 0.149 ± 0.03 | 0.417 ± 0.034 | 0.576 ± 0.011 | 0.4917 ± 0.0018 | 0.587 ± 0.0092 | 0.0703 ± 0.024 | 0.0895 ± 0.022 | 0.136 ± 0.0035
24 | FLCFFGGCFFLV | 0.468 ± 0.0077 | 0.581 ± 0.032 | 0.646 ± 0.06 | 0.523 ± 0.029 | 0.6462 ± 0.0016 | 0.4162 ± 0.0038 | 0.401 ± 0.025 | 0.5617 ± 0.0015
25 | FLCLLFYLSFFS | 0.415 ± 0.029 | 0.55 ± 0.018 | 0.5422 ± 4.9e-05 | 0.404 ± 0.028 | 0.572 ± 0.0078 | 0.378 ± 0.021 | 0.391 ± 0.021 | 0.5482 ± 0.0007
26 | FLFWVLLVGCSF | 0.304 ± 0.028 | 0.244 ± 0.0058 | 0.299 ± 0.012 | 0.245 ± 0.035 | 0.3748 ± 0.0029 | 0.206 ± 0.015 | 0.206 ± 0.021 | 0.334 ± 0.013
27 | FLGVFFYFLLCV | 0.379 ± 0.03 | 0.235 ± 0.02 | 0.2583 ± 0.002 | 0.254 ± 0.026 | 0.35871 ± 0.00032 | 0.2529 ± 0.0012 | 0.239 ± 0.013 | 0.326 ± 0.0064
28 | FLLAIVRGVWLA | 0.176 ± 0.014 | 0.15 ± 0.029 | 0.115 ± 0.0084 | 0.257 ± 0.034 | 0.339 ± 0.014 | 0.154 ± 0.01 | 0.104 ± 0.032 | 0.112 ± 0.0028
29 | FLPHLMCVFSFC | 0.382 ± 0.0022 | 0.456 ± 0.05 | 0.489 ± 0.01 | 0.394 ± 0.028 | 0.522 ± 0.0054 | 0.3324 ± 0.0015 | 0.334 ± 0.016 | 0.465 ± 0.0064
30 | FLVFRPPALFLR | 0.218 ± 0.18 | 0.0932 ± 0.018 | 0.0985 ± 0.0088 | 0.198 ± 0.024 | 0.268 ± 0.013 | 0.611 ± 0.01 | 0.22 ± 0.017 | 0.219 ± 0.0054
31 | FLVVCGLLSWVW | 0.348 ± 0.05 | 0.324 ± 0.00073 | 0.407 ± 0.029 | 0.263 ± 0.039 | 0.455 ± 0.015 | 0.232 ± 0.0053 | 0.28 ± 0.032 | 0.4291 ± 0.003
32 | FLVVSSVGFPLL | 0.467 ± 0.027 | 0.676 ± 0.017 | 0.73 ± 0.0085 | 0.626 ± 0.018 | 0.729 ± 0.027 | 0.618 ± 0.011 | 0.628 ± 0.014 | 0.714 ± 0.014
33 | FLWLCLLSLFFR | 0.481 ± 0.018 | 0.454 ± 0.069 | 0.383 ± 0.035 | 0.436 ± 0.018 | 0.548 ± 0.017 | 0.547 ± 0.01 | 0.434 ± 0.0099 | 0.498 ± 0.031
34 | FLYFLLQFLCSG | 0.516 ± 0.034 | 0.517 ± 0.04 | 0.544 ± 0.0046 | 0.418 ± 0.034 | 0.597 ± 0.046 | 0.406 ± 0.0045 | 0.421 ± 0.029 | 0.579 ± 0.034
35 | FMCFVLPVFVLV | 0.306 ± 0.024 | 0.247 ± 0.013 | 0.282 ± 0.034 | 0.222 ± 0.029 | 0.389 ± 0.0074 | 0.196 ± 0.018 | 0.212 ± 0.017 | 0.344 ± 0.014
36 | FNFFFSSVFLLV | 0.299 ± 0.015 | 0.3037 ± 0.0011 | 0.252 ± 0.025 | 0.342 ± 0.048 | 0.436 ± 0.051 | 0.3 ± 0.022 | 0.19 ± 0.02 | 0.334 ± 0.029
37 | FPFFFLSILSAV | 0.177 ± 0.019 | 0.262 ± 0.015 | 0.2944 ± 0.0028 | 0.256 ± 0.037 | 0.383 ± 0.0098 | 0.11 ± 0.0067 | 0.122 ± 0.023 | 0.168 ± 0.0078
38 | FPFVYRSVLLFF | 0.177 ± 0.089 | 0.392 ± 0.052 | 0.484 ± 0.012 | 0.411 ± 0.033 | 0.577 ± 0.011 | 0.1059 ± 0.00044 | 0.0991 ± 0.021 | 0.216 ± 0.029
39 | FPPRLIPLLARS | 0.372 ± 0.02 | 0.442 ± 0.028 | 0.4556 ± 0.00087 | 0.31 ± 0.044 | 0.511 ± 0.0063 | 0.2401 ± 0.0016 | 0.291 ± 0.025 | 0.4713 ± 0.0013
